Experimental findings from the supplement of paper PMC11246515 are described below.

The data set can be described thus: total protein half-life in vivo (active degradation + dilution); higher = more stable protein.
Setting [1] is: E. coli NCM3722 delta-clpP, growth: N-lim chemostat, doubling time 6 h.
[2] abbreviates: E. coli NCM3722 delta-hslV, growth: N-lim chemostat, doubling time 6 h.
The mark [3] stands for this setting: wild type E. coli NCM3722, growth: N-lim chemostat, doubling time 6 h.
[4] abbreviates: wild type E. coli NCM3722, growth: N-lim chemostat, doubling time 12 h.
The mark [5] stands for this setting: E. coli NCM3722 delta-clpP delta-lon delta-hslV, growth: N-lim chemostat, doubling time 6 h.
Setting [6] is: E. coli NCM3722 delta-lon, growth: N-lim chemostat, doubling time 6 h.
Where [7] appears, read: wild type E. coli NCM3722, growth: P-lim chemostat, doubling time 12 h.
The mark [8] stands for this setting: wild type E. coli NCM3722, growth: C-lim chemostat, doubling time 3 h.
[9] abbreviates: E. coli NCM3722 delta-smpB, growth: N-lim chemostat, doubling time 6 h.
[10] abbreviates: wild type E. coli NCM3722, growth: C-lim chemostat, doubling time 6 h.
The mark [11] stands for this setting: wild type E. coli NCM3722, growth: P-lim chemostat, doubling time 6 h.
The mark [12] stands for this setting: wild type E. coli NCM3722, growth: C-lim chemostat, doubling time 12 h.

± gives the standard deviation of the averaged measurements.

Regarding “MERVYRTDLKLLRYFLAVAEELHFGRAAARLNMSQPPLSIHIKELENQLGTQLFIRHSRSVVLTHAGKILMEESRRLLVNANNVLARIEQIGRGEAGRIELGVVGTAMWGRMRPVMRRFLRENPNVDVLFREKMPAMQMALLERRELDAGIWRMATEPPTGFTSLRLHESAFLVAMPEEHHLSSFSTVPLEALRDEYFVTMPPVYTDWDFLQRVCQQVGFSPVVIREVNEPQTVLAMVSMGIGITLIADSYAQMNWPGVIFRPLKQRIPADLYIVYETQQVTPAMVKLLAALTQ”, the “total protein half-life in vivo” value turned out to be 3.26 ± 0.21 h under setting [1], 3.03 h under setting [2], 3.31 h under setting [3] and 5.46 h under setting [4].

Regarding “MPKLGMQSIRRRQLIDATLEAINEVGMHDATIAQIARRAGVSTGIISHYFRDKNGLLEATMRDITSQLRDAVLNRLHALPQGSAEQRLQAIVGGNFDETQVSSAAMKAWLAFWASSMHQPMLYRLQQVSSRRLLSNLVSEFRRELPREQAQEAGYGLAALIDGLWLRAALSGKPLDKTRANSLTRHFITQHLPTD”, the “total protein half-life in vivo” value was 4.85 ± 0.33 h under setting [5], 4.25 h under setting [1], 4.46 h under setting [6] and 4.99 h under setting [3].

Turning to “MNRIYACPVADVPEGEALRIDTSPVIALFNVGGEFYAINDRCSHGNASMSEGYLEDDATVECPLHAASFCLKTGKALCLPATDPLTTYPVHVEGGDIFIDLPEAQP [P0ABW0]”, under setting [7], the “total protein half-life in vivo” value was 2.53 h.

As for “MKIRSLSRFVLASTMFASFTASAVPGLWQQGYGQGNAEYSVTDASGKMFTINCTGNPDQNGIYQHSVFLILAGDKTVSSHDDSTGITVVMDHKQYAIPSTLGWRNGDNAWFSFIMDIRKARQFDVYVNDQKVGSFNPDVRNAQKVLPTLADCTND”, the “total protein half-life in vivo” value under setting [8] amounted to 1.45 h.

Turning to “MSDQLQMTDGMHIIVEALKQNNIDTIYGVVGIPVTDMARHAQAEGIRYIGFRHEQSAGYAAAASGFLTQKPGICLTVSAPGFLNGLTALANATVNGFPMIMISGSSDRAIVDLQQGDYEELDQMNAAKPYAKAAFRVNQPQDLGIALARAIRVSVSGRPGGVYLDLPANVLAATMEKDEALTTIVKVENPSPALLPCPKSVTSAISLLAKAERPLIILGKGAAYSQADEQLREFIESAQIPFLPMSMAKGILEDTHPLSAAAARSFALANADVVMLVGARLNWLLAHGKKGWAADTQFIQLDIEPQEIDSNRPIAVPVVGDIASSMQGMLAELKQNTFTTPLVWRDILNIHKQQNAQKMHEKLSTDTQPLNYFNALSAVRDVLRENQDIYLVNEGANTLDNARNIIDMYKPRRRLDCGTWGVMGIGMGYAIGASVTSGSPVVAIEGDSAFGFSGMEIETICRYNLPVTIVIFNNGGIYRGDGVDLSGAGAPSPTDLLHHARYDKLMDAFRGVGYNVTTTDELRHALTTGIQSRKPTIINVVIDPAAGTESGHITKLNPKQVAGN [P0AFI0]”, the “total protein half-life in vivo” value reads like this: under setting [5], 5.61 ± 0.33 h; under setting [9], 3.08 h; under setting [8], more than 4 h; under setting [10], 3.11 h; under setting [11], 4.43 h; under setting [7], 9.26 ± 0.98 h.

Regarding “MIVLPRRLSDEVADRVRALIDEKNLEAGMKLPAERQLAMQLGVSRNSLREALAKLVSEGVLLSRRGGGTFIRWRHDTWSEQNIVQPLKTLMADDPDYSFDILEARYAIEASTAWHAAMRATPGDKEKIQLCFEATLSEDPDIASQADVRFHLAIAEASHNIVLLQTMRGFFDVLQSSVKHSRQRMYLVPPVFSQLTEQHQAVIDAIFAGDADGARKAMMAHLSFVHTTMKRFDEDQARHARITRLPGEHNEHSREKNA [P0ACL7]”, the “total protein half-life in vivo” value reads like this: under setting [5], 5.57 h; under setting [1], 2.72 h; under setting [9], 2.04 h; under setting [8], 1.28 h; under setting [10], 2.86 ± 0.55 h; under setting [12], 2.72 h. In addition, the “total protein half-life in vivo” value under setting [4] turned out to be 2.87 h.

As to “MQLTSFTDYGLRALIYMASLPEGRMTSISEVTDVYGVSRNHMVKIINQLSRAGYVTAVRGKNGGIRLGKPASAIRIGDVVRELEPLSLVNCSSEFCHITPACRLKQALSKAVQSFLTELDNYTLADLVEENQPLYKLLLVE [P0AF63]”, the “total protein half-life in vivo” value by setting is: under setting [5], 7.13 ± 1.1 h; under setting [1], 6.69 ± 0.15 h; under setting [2], 5.44 ± 0.07 h; under setting [6], 5.26 ± 0.19 h; under setting [9], 5.26 ± 0.17 h; under setting [8], 2.93 ± 0.15 h. Moreover, the “total protein half-life in vivo” value is, setting by setting: under setting [10], 6.31 ± 1.1 h; under setting [12], 8.91 ± 0.3 h; under setting [3], 5.12 ± 0.58 h; under setting [4], 10.2 ± 0.44 h; under setting [11], 4.03 ± 0.2 h; under setting [7], 6.22 ± 0.65 h.

Consider “MVDKSQETTHFGFQTVAKEQKADMVAHVFHSVASKYDVMNDLMSFGIHRLWKRFTIDCSGVRRGQTVLDLAGGTGDLTAKFSRLVGETGKVVLADINESMLKMGREKLRNIGVIGNVEYVQANAEALPFPDNTFDCITISFGLRNVTDKDKALRSMYRVLKPGGRLLVLEFSKPIIEPLSKAYDAYSFHVLPRIGSLVANDADSYRYLAESIRMHPDQDTLKAMMQDAGFESVDYYNLTAGVVALHRGYKF [P0A887]”, for which the “total protein half-life in vivo” value worked out at 5.402 ± 0.0099 h under setting [5]; 4.951 ± 0.013 h under setting [1]; 4.18 ± 0.12 h under setting [2]; 4.9 ± 0.36 h under setting [6]; 4.19 ± 0.076 h under setting [9]; 2.405 ± 0.0086 h under setting [8]. The “total protein half-life in vivo” value under setting [10] came out at 4.67 ± 0.086 h; the “total protein half-life in vivo” value under setting [12] stood at 7.96 ± 0.38 h; the “total protein half-life in vivo” value under setting [3] turned out to be 4.36 ± 0.36 h; the “total protein half-life in vivo” value under setting [4] is 8.27 ± 1.5 h; the “total protein half-life in vivo” value under setting [11] amounted to 4.45 ± 0.31 h; the “total protein half-life in vivo” value under setting [7] turned out to be 8.773 ± 0.069 h.

For “MKAFNKLFSLVVASVLVFSLAGCGDKEESKKFSANLNGTEIAITYVYKGDKVLKQSSETKIQFASIGATTKEDAAKTLEPLSAKYKNIAGVEEKLTYTDTYAQENVTIDMEKVDFKALQGISGINVSAEDAKKGITMAQMELVMKAAGFKEVK”, the “total protein half-life in vivo” value runs as follows: under setting [5], 5.1 h; under setting [1], 5.39 h; under setting [2], 5.31 h; under setting [6], 5.76 ± 0.26 h; under setting [9], 4.61 ± 0.12 h; under setting [8], 2.68 h. In addition, the “total protein half-life in vivo” value was 4.07 ± 0.38 h under setting [10]; 7.55 h under setting [12]; 5.76 ± 0.11 h under setting [3]; 9.71 ± 1.6 h under setting [4]; 5.3 h under setting [11].
